Laboratory results reported in US20120316071A1 (published 2012).
Positions count from the first letter of the chain named. Names and notes keep the numbering of the source.

B1: Fab VH5-51_IGHD5-18*01>3_IGHJ4*01 G100K/G104T G24T/S28R/G35V (H:KT TRV) & V3-4_IGLJ1*01 V91L/S96P S57D (Fab, V domains shown)
VH: EVQLVQSGAEVKKPGESLKISCKTSGYRFTSYWIVWVRQMPGKGLEWMGIIYPGDSDTRYSPSFQGQVTISADKSISTAYLQWSSLKASDTAMYYCARRKYSYTYDYFDYWGQGTLVTVSS
VL: QTVVTQEPSFSVSPGGTVTLTCGLSSGSVSTSYYPSWYQQTPGQAPRTLIYSTNTRDSGVPDRFSGSILGNKAALTITGAQADDESDYYCLLYMGPGISYVFGTGTKVTVL
notes: Fab made in E. coli: VH in plasmid A (CH1, His6 and Flag tags), VL in plasmid E (lambda CL); also called H:KT TRV & L:LP S57D
B2: Fab VH5-51_IGHD5-18*01>3_IGHJ4*01 G100K/G104T G24T/S28R/G35V (H:KT TRV) & V3-4_IGLJ1*01 V91L/S96P S57F (Fab, V domains shown)
VH: B1 VH
VL: B1 VL with D57F
notes: Fab made in E. coli: VH in plasmid A (CH1, His6 and Flag tags), VL in plasmid E (lambda CL); also called H:KT TRV & L:LP S57F
B3: Fab VH5-51_IGHD5-18*01>3_IGHJ4*01 G100K/G104T G24T/S28R/G35V (H:KT TRV) & V3-4_IGLJ1*01 V91L/S96P S57P (Fab, V domains shown)
VH: B1 VH
VL: B1 VL with D57P
notes: Fab made in E. coli: VH in plasmid A (CH1, His6 and Flag tags), VL in plasmid E (lambda CL); also called H:KT TRV & L:LP S57P
B4: Fab VH5-51_IGHD5-18*01>3_IGHJ4*01 G100K/G104T G24T/S28R/G35V (H:KT TRV) & V3-4_IGLJ1*01 V91L/S96P S57G (Fab, V domains shown)
VH: B1 VH
VL: B1 VL with D57G
notes: Fab made in E. coli: VH in plasmid A (CH1, His6 and Flag tags), VL in plasmid E (lambda CL); also called H:KT TRV & L:LP S57G
B5: Fab VH5-51_IGHD5-18*01>3_IGHJ4*01 G100K/G104T G24T/S28R/G35V (H:KT TRV) & V3-4_IGLJ1*01 V91L/S96P S57E (Fab, V domains shown)
VH: B1 VH
VL: B1 VL with D57E
notes: Fab made in E. coli: VH in plasmid A (CH1, His6 and Flag tags), VL in plasmid E (lambda CL); also called H:KT TRV & L:LP S57E
B6: Fab VH5-51_IGHD5-18*01>3_IGHJ4*01 G100K/G104T G24T/S28R/G35V (H:KT TRV) & V3-4_IGLJ1*01 V91L/S96P S57N (Fab, V domains shown)
VH: B1 VH
VL: B1 VL with D57N
notes: Fab made in E. coli: VH in plasmid A (CH1, His6 and Flag tags), VL in plasmid E (lambda CL); also called H:KT TRV & L:LP S57N
B7: Fab VH5-51_IGHD5-18*01>3_IGHJ4*01 G100K/G104T G24T/S28R/G35V (H:KT TRV) & V3-4_IGLJ1*01 V91L/S96P S57R (Fab, V domains shown)
VH: B1 VH
VL: B1 VL with D57R
notes: Fab made in E. coli: VH in plasmid A (CH1, His6 and Flag tags), VL in plasmid E (lambda CL); also called H:KT TRV & L:LP S57R
B8: Fab VH5-51_IGHD5-18*01>3_IGHJ4*01 G100K/G104T G24T/S28R/G35V (H:KT TRV) & V3-4_IGLJ1*01 V91L/S96P S57L (Fab, V domains shown)
VH: B1 VH
VL: B1 VL with D57L
notes: Fab made in E. coli: VH in plasmid A (CH1, His6 and Flag tags), VL in plasmid E (lambda CL); also called H:KT TRV & L:LP S57L
B9: Fab VH5-51_IGHD5-18*01>3_IGHJ4*01 G100K/G104T G24T/S28R/G35V (H:KT TRV) & V3-4_IGLJ1*01 V91L/S96P S57K (Fab, V domains shown)
VH: B1 VH
VL: B1 VL with D57K
notes: Fab made in E. coli: VH in plasmid A (CH1, His6 and Flag tags), VL in plasmid E (lambda CL); also called H:KT TRV & L:LP S57K
B10: Fab VH5-51_IGHD5-18*01>3_IGHJ4*01 G100K/G104T G24T/S28R/G35V (H:KT TRV) & V3-4_IGLJ1*01 V91L/S96P S57T (Fab, V domains shown)
VH: B1 VH
VL: B1 VL with D57T
notes: Fab made in E. coli: VH in plasmid A (CH1, His6 and Flag tags), VL in plasmid E (lambda CL); also called H:KT TRV & L:LP S57T
B11: Fab VH5-51_IGHD5-18*01>3_IGHJ4*01 G100K/G104T G24T/S28R/G35V (H:KT TRV) & V3-4_IGLJ1*01 V91L/S96P S57H (Fab, V domains shown)
VH: B1 VH
VL: B1 VL with D57H
notes: Fab made in E. coli: VH in plasmid A (CH1, His6 and Flag tags), VL in plasmid E (lambda CL); also called H:KT TRV & L:LP S57H
B12: Fab VH5-51_IGHD5-18*01>3_IGHJ4*01 G100K/G104T G24T/S28R/G35V (H:KT TRV) & V3-4_IGLJ1*01 V91L/S96P S57V (Fab, V domains shown)
VH: B1 VH
VL: B1 VL with D57V
notes: Fab made in E. coli: VH in plasmid A (CH1, His6 and Flag tags), VL in plasmid E (lambda CL); also called H:KT TRV & L:LP S57V
B13: Fab VH5-51_IGHD5-18*01>3_IGHJ4*01 G100K/G104T G24T/S28R/G35V (H:KT TRV) & V3-4_IGLJ1*01 V91L/S96P S57I (Fab, V domains shown)
VH: B1 VH
VL: B1 VL with D57I
notes: Fab made in E. coli: VH in plasmid A (CH1, His6 and Flag tags), VL in plasmid E (lambda CL); also called H:KT TRV & L:LP S57I
B14: Fab VH5-51_IGHD5-18*01>3_IGHJ4*01 G100K/G104T G24T/S28R/G35V (H:KT TRV) & V3-4_IGLJ1*01 V91L/S96P S57M (Fab, V domains shown)
VH: B1 VH
VL: B1 VL with D57M
notes: Fab made in E. coli: VH in plasmid A (CH1, His6 and Flag tags), VL in plasmid E (lambda CL); also called H:KT TRV & L:LP S57M
B15: Fab VH5-51_IGHD5-18*01>3_IGHJ4*01 G100K/G104T G24T/S28R/G35V (H:KT TRV) & V3-4_IGLJ1*01 V91L/S96P S57Y (Fab, V domains shown)
VH: B1 VH
VL: B1 VL with D57Y
notes: Fab made in E. coli: VH in plasmid A (CH1, His6 and Flag tags), VL in plasmid E (lambda CL); also called H:KT TRV & L:LP S57Y
B16: Fab VH5-51_IGHD5-18*01>3_IGHJ4*01 G100K/G104T G24T/S28R/G35V (H:KT TRV) & V3-4_IGLJ1*01 V91L/S96P T53G (Fab, V domains shown)
VH: B1 VH
VL: B1 VL with T53G, D57S
notes: Fab made in E. coli: VH in plasmid A (CH1, His6 and Flag tags), VL in plasmid E (lambda CL); also called H:KT TRV & L:LP T53G
B17: Fab VH5-51_IGHD5-18*01>3_IGHJ4*01 G100K/G104T G24T/S28R/G35V (H:KT TRV) & V3-4_IGLJ1*01 V91L/S96P S57W (Fab, V domains shown)
VH: B1 VH
VL: B1 VL with D57W
notes: Fab made in E. coli: VH in plasmid A (CH1, His6 and Flag tags), VL in plasmid E (lambda CL); also called H:KT TRV & L:LP S57W
B18: Fab VH5-51_IGHD5-18*01>3_IGHJ4*01 G100K/G104T G24T/S28R/G35V (H:KT TRV) & V3-4_IGLJ1*01 V91L/S96P S57Q (Fab, V domains shown)
VH: B1 VH
VL: B1 VL with D57Q
notes: Fab made in E. coli: VH in plasmid A (CH1, His6 and Flag tags), VL in plasmid E (lambda CL); also called H:KT TRV & L:LP S57Q

Biological target: T1, Recombinant Human DLL4 (delta-like protein 4) (human, UniProt Q9NR61 27-524)
T1 construct: Bought recombinant human DLL4 (R&D Systems Cat#1506-D4/CF) coated on the ELISA plate; also called rHuman DLL4; Delta-like ligand 4
Test: ELISA, DLL4 coated on plate, 100 nM Fab

Binder | ELISA Signal-blank (100 nM Fab)
B1 | 0.17
B2 | 0.1
B3 | 0.36
B4 | 0.23
B5 | 0.2
B6 | 0.24
B7 | 0.18
B8 | 0.3
B9 | 0.17
B10 | 0.3
B11 | 0.21
B12 | 0.34
B13 | 0.24
B14 | 0.3
B15 | 0.28
B16 | 0.08
B17 | 0.12
B18 | 0.21
